Results on 36 variants are retold here after the supplement of paper PMC7125110.

± gives the standard error. Fewer inactive variants are shown than the library holds.

The labels stand for the following.
B1: glmS ribozyme (parent)
chain: AUAAAAGCGCCAGAACUACAGAAAUGUAGUUGACGAGGAGGAGGUUUAUCGAAUUUUCGGCGGAUGCCUCCAAA

In the first series the parent is B1. The series is described as follows: self-cleavage kobs at 2500 uM GlcN6P; higher = faster cleavage; RNA array. To be noted: with glucosamine-6-phosphate. The essentials: (§1)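 Tracking of barcoded ribozyme variants used a hybridised Cy3 probe at 37 °C, after in situ transcription by E. coli RNA polymerase on sequenced MiSeq chips. The flowed solution held 40 μM to 10 mM glucosamine-6-phosphate in HEPES/KCl/Mg(OAc)2 buffer, and imaging ran over ~14 h. kobs was taken from exponential decay fits of normalised per-tile medians, and kcat and KM from weighted Michaelis–Menten fits.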
In the case of AUAAAAGCGCCAGAACUACAGAAAUGUAGUUUACGAGGCGGAGGUUUAUCGAAUUUUCGGCGGAUGCCUCCAAA [G32U A39C], the “self-cleavage kobs at 2500 uM GlcN6P” value amounted to 4.98e-05 ± 1.5e-05 s⁻¹.

With AUAAAAGCGCCAGAACUACAGAAAUGUAGUUGACGAGGAGGAGGUUUAUCGAGUUUACGGCGGAUGCAUCCAAA [A53G U57A C68A], the “self-cleavage kobs at 2500 uM GlcN6P” value stood at 4.93e-05 ± 2.2e-05 s⁻¹.

In the case of AUAAAAGCGCCAGAACUACAGAAAUGUAGUUUACGUCGAGGAGGUUGAUCGCAUUUUCGGCGGAUGGCUCCAAA [G32U A36U G37C U47G A52C C67G], the “self-cleavage kobs at 2500 uM GlcN6P” value was under 1e-05 s⁻¹.

AUAAAAGCGCCAGUACUACAGAAAUGUAGAUGACGAGGAGGAGGUUUAUCGAAUUUUCGGCGGAUGCCUUCAAA [A14U U30A C70U]: the “self-cleavage kobs at 2500 uM GlcN6P” value amounted to 0.000871 ± 0.00021 s⁻¹.

In the case of AUAAAAGCGCCAGAACUACAGAAAUGUAGUGGACCAGGAGAAGGUUUAUCGAUUUUUCGGCGAAUGCCUCCAAA [U31G G35C G41A A53U G63A], the “self-cleavage kobs at 2500 uM GlcN6P” value is under 1e-05 s⁻¹.

In the case of AUAAAAGCGCCAGAACUACAGAAAUGUAGAUGACGCGGAGGAGGCUUAUCGAAUUUUCGGCGGAUGCCUCCAAA [U30A A36C U45C], the “self-cleavage kobs at 2500 uM GlcN6P” value was under 1e-05 s⁻¹.

For AUAAAAGCGCCAGAACUACAGAAAUGUAUUUGACGUGGAGGUGGUUUAUCGAAUUGUCGGCGGAUUCCUCCAAA [G29U A36U A42U U56G G66U], the “self-cleavage kobs at 2500 uM GlcN6P” value is under 1e-05 s⁻¹.

Take AUAAAAGCGCCAGAACUACAGAAAUGUAGUUGACGAGACGGAGGUUUAUGGAAUUUUCGGCGGAUGCAUCCAAA [G38A A39C C50G C68A]: the “self-cleavage kobs at 2500 uM GlcN6P” value came out at 5.88e-05 ± 2.8e-05 s⁻¹.

For AUAAAAGCGCCAGAACUACAGAAAUUUAGUUGACGAGGAGGAGGUUUGUCGAAUUUUCGGCGGAUGCCUCCAAA [G26U A48G], the “self-cleavage kobs at 2500 uM GlcN6P” value stood at 7.11e-05 ± 1.8e-05 s⁻¹.

For AUAAAAGCGCCAGACCUACAGAAAUGUAGUUGACGAAGAGGAGGUUUAUCGAAUUUUCGGCGGAGGCCUCCAAA [A15C G37A U65G], the “self-cleavage kobs at 2500 uM GlcN6P” value turned out to be 8.59e-05 ± 2.6e-05 s⁻¹.

Turning to AUAAAAGCGCCAGAACUACAGAAAUGUAGUUGACGAGGAGGAGGUCUAUCGAAUUUUCGGCGGAUACCUUCAAA [U46C G66A C70U], the “self-cleavage kobs at 2500 uM GlcN6P” value was 0.00157 ± 0.00039 s⁻¹.

AUAAAAGCGCCAGCACUACAGAAAUGUAGUUGACGAGGAGGAGGUCUAUAGAAUUUCCGGUGGACGCCUCCAAA [A14C U46C C50A U57C C61U U65C]: the “self-cleavage kobs at 2500 uM GlcN6P” value was under 1e-05 s⁻¹.

AUAAAGGCGCCAGCACUACAGAAAUGUAGUUGACGAGCAGGAGGUUUAUCGAAUUUUCGGCGGAUGCCUCCAAA [A6G A14C G38C]: the “self-cleavage kobs at 2500 uM GlcN6P” value was under 1e-05 s⁻¹.

AUAAAAGCGCCAGAACUACAGAAAUGUAGUUGACGAGGAGGAGGUUUAUCGAAUUUUGCGAAGAUGCCUCAAAA [C58G G59C C61A G62A C71A]: the “self-cleavage kobs at 2500 uM GlcN6P” value is under 1e-05 s⁻¹.

With AUAAAAGCGCCAGAACUACAGAAAUGUAGUUGACGAGGAGGAGUUUUAUCGAAUUUUCGGCCGAUAGCUCCAAA [G44U G62C G66A C67G], the “self-cleavage kobs at 2500 uM GlcN6P” value was under 1e-05 s⁻¹.

Regarding AUAAAAGCGCCAGAACUACAGAAAUGUAGCUGACGAGGAGGAGGUUUAUCGAAUUUUGGGCGGAUGCCUUCAAA [U30C C58G C70U], the “self-cleavage kobs at 2500 uM GlcN6P” value worked out at 5.76e-05 ± 1.9e-05 s⁻¹.

On to AUAAAAACGCCAGAACUACAGAAAUGUAGUUGACGAGGAGGAGGUUUAUCGAUUUUUCAGCGGAUGCCUUCAAA [G7A A53U G59A C70U], for which the “self-cleavage kobs at 2500 uM GlcN6P” value is under 1e-05 s⁻¹.

Regarding AUAAAAGCGCCAGAACUACAGAAAUGUAGUUGUCCAGGAGGAGGUUUAUCGAAUUUUCGGCGGAUGGCUCCAAA [A33U G35C C67G], the “self-cleavage kobs at 2500 uM GlcN6P” value is under 1e-05 s⁻¹.

Take AUAAAAGCGCCAGAACUACAGAAAUGUAGUUGACGGGGAGGAGGUUUAUCGAAUUUUCGGGGGAUGGCGCAAAA [A36G C61G C67G U69G C71A]: the “self-cleavage kobs at 2500 uM GlcN6P” value is under 1e-05 s⁻¹.

Turning to AUAAAAGCGCCAGAACUACAGAAAUGUAGUCUACGAGGAGGAGGUUUAUCGAACUUUAGGCGGAUGCCUCCAAA [U31C G32U U54C C58A], the “self-cleavage kobs at 2500 uM GlcN6P” value amounted to 0.000137 ± 4.2e-05 s⁻¹.

As to AUAAAAGCGUCAGAACUACAGAAAUGUAGUUGACGAGGAGGAGGUUUAUCGAAUUUUCGCCGUAUGCCUCCAAA [C10U G60C G63U], the “self-cleavage kobs at 2500 uM GlcN6P” value is under 1e-05 s⁻¹.

Regarding AUAAAAGCGCCAGAGCUACAGAAAUGUAGAUGACGAGGAGGAGGUUUAUCGAAUUUUCGGCGGAUGCCUCUAAA [A15G U30A C71U], the “self-cleavage kobs at 2500 uM GlcN6P” value came to 0.0164 ± 0.0034 s⁻¹.

On to AUAAAAGCGCCAGUAUUACAGAAAUGUAGUUGACGAGGAGGAGGUUUAUCGAAUUUUUGGCGGAUGCCUCCAAA [A14U C16U C58U], for which the “self-cleavage kobs at 2500 uM GlcN6P” value is 5.54e-05 ± 1.5e-05 s⁻¹.

In the case of AUAAACGCGCCAGAUCUACAGAAAUGUAGUUGACGAGGAGGAUGUUUAUCGAAGUUUCGGCGGAUGCCUCCAAA [A6C A15U G43U U54G], the “self-cleavage kobs at 2500 uM GlcN6P” value is under 1e-05 s⁻¹.

Consider AUAAAAUCGCCAGAACUACAGAAAUGUAGUUCACGAGGAGGAGGUUUAUCGAAAUUUCGGCGGAUGCCUCCAAA [G7U G32C U54A], for which the “self-cleavage kobs at 2500 uM GlcN6P” value was under 1e-05 s⁻¹.

For the variant AUAAAAGCACCAGAACUACAGAAAUGUAGUUGACGAGGAGGAGGUUUAUGGAAUUUUCGGCGGAUGGCUCCAAA [G9A C50G C67G], the “self-cleavage kobs at 2500 uM GlcN6P” value was determined as 9.36e-05 ± 2.6e-05 s⁻¹.

As to AUAAAAGCUCCAGAACUACAGAAAUGUAGUUGACGAGGAGGAGGUUUAUCGAAUUUUCUGCGGAUGCCUUCAAA [G9U G59U C70U], the “self-cleavage kobs at 2500 uM GlcN6P” value is under 1e-05 s⁻¹.

Take AUAAAAGCGCCAGAACUACAGAAAUGUAGCUGACAAUGAGGAGGUUUAUCGAAUUUUCGGCGGAUGCCUACAAA [U30C G35A G37U C70A]: the “self-cleavage kobs at 2500 uM GlcN6P” value amounted to 0.000153 ± 4.9e-05 s⁻¹.

With AUAAAAGCGCCACAACUACAGAAAUGUAGUUGACGAGGAGGAGGUUUAUCGAAUUUUCGGAGGAUGCCUCCAAA [G13C C61A], the “self-cleavage kobs at 2500 uM GlcN6P” value was under 1e-05 s⁻¹.

On to AUAAAAGCGCCAGAAAUACAGAAAUGUAGUUGACGAGAAGGAGGUUUAUCGAAUAUUCGGCGGAUGCCUCCAAA [C16A G38A U55A], for which the “self-cleavage kobs at 2500 uM GlcN6P” value was under 1e-05 s⁻¹.

Regarding AUAAAAGCGCCAGAACUACAGAAAUGUAGGUGACGAGGAGGAGGUUUAUCGAAUUUUCGGCAGUUGCCUCUAAA [U30G G62A A64U C71U], the “self-cleavage kobs at 2500 uM GlcN6P” value was under 1e-05 s⁻¹.

For AUAAAACCGCCGGAACUACAGAAAUGUAGUUGACGAGGUGGCGGUUUAUCGAAUUUUCGGCGGACGCCUCAAAA [G7C A12G A39U A42C U65C C71A], the “self-cleavage kobs at 2500 uM GlcN6P” value was under 1e-05 s⁻¹.

On to AUAAAAGCGCCAGAACUACAGAAAUGUACUUGACGAGGAUGAGGUCUAUCGAAUUUUCGGCGGAUGACUCCAAA [G29C G40U U46C C67A], for which the “self-cleavage kobs at 2500 uM GlcN6P” value was under 1e-05 s⁻¹.

On to AUAAAAGGGCCAGCACUACAGAAAUGUAGUUGACGAGGAGGAGGUUUAUCGAAUUUUCGGCGGAUGCCUCGAAA [C8G A14C C71G], for which the “self-cleavage kobs at 2500 uM GlcN6P” value was under 1e-05 s⁻¹.

For AUAAAAGCGCCAGGACUACAGAAAUGUAGUUGACUAAGAGGAGGUUUAUCGAAUUUUCGGCGGAUGCCUCCAAA [A14G G35U G37A], the “self-cleavage kobs at 2500 uM GlcN6P” value is under 1e-05 s⁻¹.

For AUAAAAGCGCCAGAACUACAGAAAUGUAGUUGACGAUGAUGAGGUUUAUCGAAUCUUCGGCGGAUGCCUCCAAA [G37U G40U U55C], the “self-cleavage kobs at 2500 uM GlcN6P” value was under 1e-05 s⁻¹.

Variants of B1 are the subject of the next series. The series is described as follows: self-cleavage kobs at 10000 uM GlcN6P; higher = faster cleavage; RNA array. To be noted: with glucosamine-6-phosphate. The essentials: as §1
As to AUAAAAGCGCCAGAACUACAGAAAUGUAGUUUACGAGGCGGAGGUUUAUCGAAUUUUCGGCGGAUGCCUCCAAA [G32U A39C], the “self-cleavage kobs at 10000 uM GlcN6P” value is 7.09e-05 ± 1.1e-05 s⁻¹.
